Source: patent US10562947B2, “Compositions and methods for preventing or treating diseases, conditions or processes characterized by aberrant fibroblast proliferation and extracellular matrix deposition” (MOERAE MATRIX, INC., priority 2011, dated 2020)

What was measured:
Assay in all cases: Kinase Profiling Assay
Format in all cases: biochemical
Conditions in all cases: 100 μM peptide
SGK3(h) = target: T1, SGK3(h) (Homo sapiens, UniProt Q96BR1)
T1 sequence (Q96BR1 1-496): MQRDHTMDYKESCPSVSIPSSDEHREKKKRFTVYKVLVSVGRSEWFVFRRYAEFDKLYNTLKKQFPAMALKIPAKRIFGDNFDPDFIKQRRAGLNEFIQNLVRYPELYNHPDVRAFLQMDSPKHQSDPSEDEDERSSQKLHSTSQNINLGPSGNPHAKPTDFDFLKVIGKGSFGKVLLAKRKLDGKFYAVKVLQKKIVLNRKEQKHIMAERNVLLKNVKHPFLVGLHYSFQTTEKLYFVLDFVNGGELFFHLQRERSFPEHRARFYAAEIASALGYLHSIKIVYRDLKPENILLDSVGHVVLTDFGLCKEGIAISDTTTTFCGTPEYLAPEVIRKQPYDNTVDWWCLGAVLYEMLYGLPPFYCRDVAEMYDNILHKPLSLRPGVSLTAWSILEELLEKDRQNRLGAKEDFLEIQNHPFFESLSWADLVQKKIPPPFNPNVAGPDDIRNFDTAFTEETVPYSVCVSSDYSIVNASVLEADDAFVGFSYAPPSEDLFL
How it was run: (§1)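 In duplicate, the activities of 266 available human kinases were determined with MK2 inhibitory peptides present, as a measure of peptide selectivity.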

Rsk1(h) = target: T2, Rsk1(h) (Homo sapiens, UniProt Q15418)
T2 construct: purchased Millipore (IC50 Profiler Express service)
How it was run: as §1

PKCγ(h) = PKCγ(h) (Homo sapiens, UniProt P05129)
How it was run: as §1

EGFR(L858R)(h) = EGFR(L858R)(h) (Homo sapiens, UniProt P00533, L858R)
How it was run: as §1

CaMKIδ(h) = CaMKIδ(h) (Homo sapiens, UniProt Q8IU85)
How it was run: as §1

ARK5(h) = target: T3, ARK5(h) (Homo sapiens, UniProt O60285)
T3 sequence (O60285 1-661): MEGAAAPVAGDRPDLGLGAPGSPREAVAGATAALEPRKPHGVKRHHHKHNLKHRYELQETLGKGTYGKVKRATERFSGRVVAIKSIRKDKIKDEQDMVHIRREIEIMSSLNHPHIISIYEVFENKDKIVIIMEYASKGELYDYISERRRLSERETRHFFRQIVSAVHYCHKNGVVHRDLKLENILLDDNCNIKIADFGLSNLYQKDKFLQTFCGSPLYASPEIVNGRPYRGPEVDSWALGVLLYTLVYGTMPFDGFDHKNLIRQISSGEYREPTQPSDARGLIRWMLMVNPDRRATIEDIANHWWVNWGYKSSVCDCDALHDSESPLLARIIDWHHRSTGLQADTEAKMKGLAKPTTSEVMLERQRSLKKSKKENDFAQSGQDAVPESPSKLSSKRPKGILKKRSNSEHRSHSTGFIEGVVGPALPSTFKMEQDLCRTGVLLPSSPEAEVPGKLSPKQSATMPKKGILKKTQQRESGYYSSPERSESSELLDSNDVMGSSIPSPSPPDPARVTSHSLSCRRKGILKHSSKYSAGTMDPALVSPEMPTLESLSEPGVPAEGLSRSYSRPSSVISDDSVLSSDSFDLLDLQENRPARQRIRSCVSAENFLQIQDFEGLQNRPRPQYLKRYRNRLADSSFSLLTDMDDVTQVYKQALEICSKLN
How it was run: as §1

Mnk2(h) = Mnk2(h) (Homo sapiens, UniProt Q9HBH9)
How it was run: as §1

Fes(h) = Fes(h) (Homo sapiens, UniProt P07332)
How it was run: as §1

Abl(Y253F)(h) = Abl(Y253F)(h) (Homo sapiens, UniProt P00519, Y253F)
How it was run: as §1

MST2(h) = target: T4, MST2(h) (Homo sapiens, UniProt Q13188)
T4 sequence (Q13188 1-491): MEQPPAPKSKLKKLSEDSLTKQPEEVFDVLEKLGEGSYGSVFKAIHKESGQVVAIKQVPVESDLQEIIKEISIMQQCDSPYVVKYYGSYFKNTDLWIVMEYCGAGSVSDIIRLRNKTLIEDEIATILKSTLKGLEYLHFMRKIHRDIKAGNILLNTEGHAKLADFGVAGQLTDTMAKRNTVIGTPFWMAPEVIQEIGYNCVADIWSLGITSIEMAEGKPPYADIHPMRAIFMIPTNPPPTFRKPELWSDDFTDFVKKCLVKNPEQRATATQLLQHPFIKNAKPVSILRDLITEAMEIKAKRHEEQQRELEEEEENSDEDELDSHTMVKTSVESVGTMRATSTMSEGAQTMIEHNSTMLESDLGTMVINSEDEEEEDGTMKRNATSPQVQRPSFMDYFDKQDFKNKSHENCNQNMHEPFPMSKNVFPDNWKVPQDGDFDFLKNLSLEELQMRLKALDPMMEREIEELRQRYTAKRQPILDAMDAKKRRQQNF
How it was run: as §1

Ret(V804M)(h) = target: T5, Ret(V804M)(h) (Homo sapiens, UniProt P07949, V804M)
T5 construct: purchased Millipore (IC50 Profiler Express service)
How it was run: as §1

T2 sequence (Q15418 whole entry): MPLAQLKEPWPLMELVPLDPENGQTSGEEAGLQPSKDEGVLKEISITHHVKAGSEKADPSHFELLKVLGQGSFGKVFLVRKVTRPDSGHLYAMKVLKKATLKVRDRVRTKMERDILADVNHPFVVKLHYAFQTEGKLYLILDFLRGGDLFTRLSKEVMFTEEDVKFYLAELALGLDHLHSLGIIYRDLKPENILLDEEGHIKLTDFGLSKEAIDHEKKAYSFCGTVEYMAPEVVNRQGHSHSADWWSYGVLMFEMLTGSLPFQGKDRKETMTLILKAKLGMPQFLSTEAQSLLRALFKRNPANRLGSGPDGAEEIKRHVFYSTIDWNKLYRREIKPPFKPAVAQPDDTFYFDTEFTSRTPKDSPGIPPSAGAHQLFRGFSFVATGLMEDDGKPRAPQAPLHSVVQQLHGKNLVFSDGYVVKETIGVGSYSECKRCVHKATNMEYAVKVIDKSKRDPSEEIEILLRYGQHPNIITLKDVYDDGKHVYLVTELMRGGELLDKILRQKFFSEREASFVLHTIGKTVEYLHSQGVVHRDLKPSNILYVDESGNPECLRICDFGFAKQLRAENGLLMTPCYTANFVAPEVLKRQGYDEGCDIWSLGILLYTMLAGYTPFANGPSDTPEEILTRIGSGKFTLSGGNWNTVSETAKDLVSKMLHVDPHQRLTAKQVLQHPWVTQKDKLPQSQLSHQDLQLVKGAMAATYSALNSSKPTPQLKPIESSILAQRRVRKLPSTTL
Sequence of CaMKIδ(h) (Q8IU85 whole entry): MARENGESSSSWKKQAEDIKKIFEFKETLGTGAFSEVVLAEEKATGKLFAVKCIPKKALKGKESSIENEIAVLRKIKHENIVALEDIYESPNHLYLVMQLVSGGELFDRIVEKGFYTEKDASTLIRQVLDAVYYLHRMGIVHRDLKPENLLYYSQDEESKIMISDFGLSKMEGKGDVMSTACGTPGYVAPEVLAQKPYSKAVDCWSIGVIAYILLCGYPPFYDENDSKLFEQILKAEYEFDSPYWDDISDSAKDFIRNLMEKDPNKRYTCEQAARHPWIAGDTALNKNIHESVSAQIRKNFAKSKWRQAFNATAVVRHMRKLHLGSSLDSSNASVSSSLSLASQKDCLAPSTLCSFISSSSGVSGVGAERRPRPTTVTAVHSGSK
Sequence of Fes(h) (P07332 whole entry): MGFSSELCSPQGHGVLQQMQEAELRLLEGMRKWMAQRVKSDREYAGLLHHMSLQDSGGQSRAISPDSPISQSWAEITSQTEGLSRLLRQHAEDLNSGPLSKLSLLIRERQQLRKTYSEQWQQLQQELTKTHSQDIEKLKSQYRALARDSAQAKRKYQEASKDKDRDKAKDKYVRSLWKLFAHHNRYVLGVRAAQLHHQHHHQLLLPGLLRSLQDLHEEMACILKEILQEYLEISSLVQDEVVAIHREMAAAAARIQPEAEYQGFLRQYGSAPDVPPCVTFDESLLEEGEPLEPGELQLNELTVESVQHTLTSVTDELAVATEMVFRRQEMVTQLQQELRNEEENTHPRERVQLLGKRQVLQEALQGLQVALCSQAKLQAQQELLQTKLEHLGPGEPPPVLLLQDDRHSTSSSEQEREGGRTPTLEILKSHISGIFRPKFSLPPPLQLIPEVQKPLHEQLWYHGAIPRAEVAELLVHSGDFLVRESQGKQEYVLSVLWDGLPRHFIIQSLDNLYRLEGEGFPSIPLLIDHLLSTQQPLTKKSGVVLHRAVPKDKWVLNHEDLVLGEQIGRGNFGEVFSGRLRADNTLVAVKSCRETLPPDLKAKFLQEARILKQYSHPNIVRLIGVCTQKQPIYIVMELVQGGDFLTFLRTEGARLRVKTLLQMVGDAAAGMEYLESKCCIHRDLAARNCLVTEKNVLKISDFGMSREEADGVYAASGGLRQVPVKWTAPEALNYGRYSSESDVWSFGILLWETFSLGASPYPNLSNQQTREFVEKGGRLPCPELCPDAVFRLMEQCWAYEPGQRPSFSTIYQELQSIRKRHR
Sequence of Mnk2(h) (Q9HBH9 whole entry): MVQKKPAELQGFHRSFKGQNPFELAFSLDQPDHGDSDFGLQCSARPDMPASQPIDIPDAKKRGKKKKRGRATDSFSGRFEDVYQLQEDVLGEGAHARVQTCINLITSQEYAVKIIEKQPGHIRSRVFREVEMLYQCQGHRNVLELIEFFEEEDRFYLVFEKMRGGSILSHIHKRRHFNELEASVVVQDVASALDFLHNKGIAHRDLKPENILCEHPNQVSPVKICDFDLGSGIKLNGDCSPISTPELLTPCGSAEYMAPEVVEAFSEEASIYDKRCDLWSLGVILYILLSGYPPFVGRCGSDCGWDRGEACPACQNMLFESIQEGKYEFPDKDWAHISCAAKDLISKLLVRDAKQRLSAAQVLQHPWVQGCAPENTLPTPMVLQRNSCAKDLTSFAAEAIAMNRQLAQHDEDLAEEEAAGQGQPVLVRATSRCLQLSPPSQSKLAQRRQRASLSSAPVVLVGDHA

Sequence | SGK3(h) % activity (SGK3(h)) [%] | Rsk1(h) % activity (Rsk1(h)) [%] | PKCγ(h) % activity (PKCγ(h)) [%] | EGFR(L858R)(h) % activity (EGFR(L858R)(h)) [%] | CaMKIδ(h) % activity (CaMKIδ(h)) [%] | ARK5(h) % activity (ARK5(h)) [%] | Mnk2(h) % activity (Mnk2(h)) [%] | Fes(h) % activity (Fes(h)) [%] | Abl(Y253F)(h) % activity (Abl(Y253F)(h)) [%] | MST2(h) % activity (MST2(h)) [%] | Ret(V804M)(h) % activity (Ret(V804M)(h)) [%]
KAFAKLAARLYRKALARQLGVAA [MMI-0400] | 8 | 54 | 79 | 52 | 17 | 69 | 86 | 16 | 78 | 11 | 87
YARAAARQARAKALNRQLGVA (Mammalian) [MMI-0200] | 58 |  | 101 | 120 | 47 | 93 |  | 74 |  |  | 
FAKLAARLYRKALARQLGVAA [MMI-0300] | 10 | 46 | 89 |  | 10 | 78 | 89 | 20 | 86 | 19 | 95
HRRIKAWLKKIKALARQLGVAA (Mammalian) [MMI-0500] | −3 | 34 | 6 | 26 | 0 | 20 | 6 | 23 | 29 | 2 | 36
